Among the data in a protein production outcome set (Wang et al. 2014) are protein production values, retold here.

This data set can be described thus: label from the status in PepcDB records.
Take “VKLVEEYIAANWNESLTIEKLVELTGMSARTVFKAFQRTRGYSPMAFAKRVRMERVRQLLLEAGGDASVGAIAVQCGFPHLGHFAKDYRKTFGENPSDTLARGRRFRGVR”: the protein production result is on record as “not failed”.
The same measure for “MGFTTDKIRTIAVAGHGQSGKTSLVEHLLYVSGLIAKAESVDSGKTVTDYSQEEIDRKISIYSTLVNLQKDDKLINIWDTPGASDFIGEVIAAFRSSEAALIVLDGRSGVQIETIKYWRDLDRRNKPRLVFANKMDEARADFDNCIADVKKQFQVDVFPVSFPMGTGDNFKGVVDVLHGKAYKIEDGKEVETEIPAEYQDKYKDALEVLAGAAAEGDEELLVKFIDEGELSPEEISRGLTLAMADNRIVPLFAGSAINNSGLNSLLRFISEILPSPEGALERGVTKEGEEISVKLDSSAPLSAIVVKTSNDQFSGRLSYVKVITGTLSADSEVYNLREEKKERVGKIYKTLGKKLTEVKEIAAGDIGVLVKLTSTKTNDTLAASADVIPFVRLRTPEPIYSLAVSAIDKKNDDKVSEQLFKACEEDMTLSFAFNAETKQNVLSGMGDLHTSIVLDKVKNQSKIEIQTSIPRIAYRETIQRKSQAEYTHKKQSGGHGQFGRVVLAIEPLPRGEKYKFTNAVFGGAISKGYIPGVEKGVIEAMEKGVSAGYPVVDVAVTVLDGKEHPVDSSEMAFKIAARNAFKDAMRNAGPILLEPIMNLTVFVETSYLGDIMSDLSSRRGRILGQSSPASGIEEIRAQVPHKELLRYAIDLRSMTSGTGSFEMSFDHYDPISGKIADEIIAEAKAFMEEQEE”: “failed”; for “MTETYVLAESPEFYQDNVTDYTGQISSSDITNIQAAIDDVKASEQKVIFVVFLSSFDGVDPETWTQQALQANGGGNVLIYALAPEERQYGIQGGTQWTDAELDAANNAAFQALSQEDWAGSALEHHHHHH”: “not failed”; for “LTLRSVFQPIFDKQHQVVGAEALVRIFTQHHTQIRPDLFFHSETFADDDKLNVERLSRAIHIRNFSLSPYRDTRLFLNVLPVAGEQFAYCDISSTLLATRLAELNIPHHRVVMELVEIESGDEGMLQMATEKLVANGFQIAIDDFGCKASTPERVAMLRPNIIKLDRQLLLDFMAGDCCGLLAGVQLAQKTGAHTVVEGIETAEQLAAMQKLDINMYQGYYLALP”: “failed”.
For the sequence “MAPSHDRGRVDRALARVSHAFSILIAALTFALPGVATAGDVPTFAVDPAWPKPLPNNWILGQVGGITVDWQGHIWVIHRPRSLTDDEKGASLNPPRSKCCVSAPPVLEFDTDGNLLRSWGGLGEGYEWVGREHGIEVDERGFVWVGGNADNDNAILKFTLDGKFVAQIGKIAPSLGSNDTTQLGKPAETAIDKAANEIYVADGYGNRRVIVFDATTLAYKRHWGAYGNKPNDDKQGPYDPKAPVAQQFGNPVHCVKLANDGLVYVCDRINNRIQVFRKDGTFVKEFFFEKNTLGNGAVWDIAIWPDPKQTWLLSADGENNEIRVIRRDDGSVVGSFGRNGRNAGQFHWVHAMAIDAKGNVYTAEVDTGKRIQKFKLTSDALK”, the protein production entry is recorded as “failed”.
The same measure for “MGERGVEMRLRIRFESAECEVELYEEWAPETVRAIADALPIKSTANRWGDEIYFTTQVAVEKEENSKDVVELGDVAYWIPGKAICLFFGKTPISDDKIRPASAVNVIGRIVNSMEGLKGVADGESVVVERA”: “not failed”; for “MKRIILLAFLCTTTLVMAQRINHVQEAIANYDYEAALTLIAKEKPTIPLLLQKGKAQRGLGMNTEALSTYQEIIANDTANTRAYIEAAECCRSLAKYQQALKYYEQALDLNPENKYVRIQYIGLLLSLQKFQDALGESSLMTEKDSSAIALHLQAQSFEGMGELLPATGCYYNIQEKYPDDYLAAAKLAALNIAGSYFNEAIEATEKYRQTDTTNIAVNRQNALAYCLNKDYPTAIQRYEYLVSQGDSSFHTCYYLGISYYAEEKYYEAHDFLEAARKHDPENVNLLYYLGRACAKTSWKKLGVEYLEKALDLTIPKDSNMVRLYIGMTDCYKMAQMPKEQIESIRERYRKYDKQNHKLLYDMAFIYFYSLKDKKNTERCLEAFLKTRPKEDKEEEAKLNERGELVLGTKNYYNAAANWLKDIQSKQKIEDFFLGGNVPAQKPE”: “failed”; for “MREPYYKKLLGIKNYLIRKNYPEELEILIPKYVEENKELRGCIDCLSCLSVCPAREVSDYPGPTFMRQLARFAFDKRDEDGREITAYFENIYNCTTCAKCVEVCPKEIDIVHRAIEKLRALAFSKGYLEHHHHHH”: “failed”.
Turning to “MTIQSEQALEQGLIKTLVSMNYQKIEIADENALIVNFRNQLNIHNNIELTDDEFNRIMIHLDSGSIFVKAEKLRNRFPLTRDDESVKWIEFLNTQEWCKNEFQVSNQITDEGRRKCRYDVTILVNGLPLVQVELKKRGVELKQAYSQVQRYHKTAFKGLFNYIQIFVISNGVNTRYFANNPNQGYKFTFPWADFKNNHIDRLDLFAAMFFEQCTLGKMLAKYVVLHQSDKCLMILRPYQFYAVEALLDKVANSVKNGYIWHTTGSGKTLTSFKAAQLIAEMSDIDKVLFVVDRHDLDTQTKKEYDAFAPGAVDSTDNTKELVKALQGKKKLMITTIQKLNNAVQKDRYSKGLQGVKDKNIVMIFDECHRSQFGEMHSNITGFFSKIRYFGFTGTPIFADNANNGCTTKDIFGERLHEYLIKDAIADENVLGFLVEYHGKWKRKSENDKQVKSIDTAEVLLKDERIASITDFILSNYNSSTYERDFNAMLAVGGVKMLIKYYDMFKSRNHDLKIATIFTYTQNEESEDEFTGLGQGFVSVQNTRDILESYIKDYNETFGTEFDTDHFGLYYDDINKRMKNRQIDLLIVSDMFLTGFDAKKLNTLYVDKNLNYHGLLQAFSRTNRVLNEKKKFGKITCFRDLKQQTDDAIKLYSNNKSSEVVLMKPYEKLVERFNEMAAEFLSYFPTVKSVGNLESELDKRRFVILFRAMLRLRNEVKGYNEFDAEDLTIEEQRFADYQSKYLDMSNEFAITSEKEDAESILQDIDFELELVHRDIINVMYILALLQDLKPESSSYPKDRKAVLDTMDSNPELRSKIALIDNFIKLHIDGRQSNDLPADMESDLDKYIATQKAIAIEQVATEEGIDSTLLHEYISEYEYLGKPKNEIIKRAIDPLKLSFMDAQSKKKSLIDKMKDIIKLFSWN”, the protein production result is recorded as “failed”.
In the case of “MLLFWLEFIGIFIAIFVSAELLAKGADELEDFLGQGITGGIILGFLTALPETIFVIVASLEGSFDVALGSAIGGNVLLFTLGIGLVGVFYAFKWRTALQISSEYSVENVFLVLTTIGMLLVLIYGKLNIISGLLLILIYVIYVVYRVAKFRREGMEREKGNLMKPVGFIIAGGVLLVVFSHYFVEYINEIAIMFNVPAIWLSLVIAPIAGELEEKISAFRLVLMSKDGGSLSILSFVGSKIENATVLLGIIGIFTDYELQQALPEYASSLIANMIALYVLFDKRLKTFESVILIGVYVIIVILSFYL” it was “failed”.
For “MKEIRYLVRQRLPFRGHDESDESANRGNFLELVKYTVGQNEVISKVVLENAPKNNQMVFDEMSEPLIPETRDPVPSSFLLLDLILDYPVVWQQTVQSNVSDKEQMAVVFRFVDKHGTVKERFIGLIHVKETSSASLKCAIDSLFAKRGLSMKQLRGQGYDGANNMKGEFNWLRSLILRENSSAYYIHCFAHQLQLVVVAVAKKQFEVGDFFDMISALLNVVGASCKGKDRIREEYLKEIEEGINQGEIKTGKGLNQELSLQRPGNTRWGTHYTTLHRLAHLFSVIIKLLEFVEEEGTDSTKRRQANGLLKYFNTFDFAFYLQLMLLLLGLTNSLSVALQKKDQDILNPMSLVKSTKQQLCKLRDDGWDSLVNEVFSFCKKHDIELVIMDGEFVNPRNPRKRSNMTNFHHYQVECFYTILDMQIQEFNDRFDEVNTELLSCVASLSPIDSFHEFDQLKVLRLSEFYPQDFTHVDRRSLEHQLGLYIDNIREDERFAN”, the protein production entry is “failed”.
The same measure for “MSAPTTFSVALHNETATAQLMADLALLVGPGDVITLTGDLGAGKTAAARAMIRYLADDEALEVPSPTFTLVQGYELPPFPVMHADLYRVEDESELEEIGLSPLPDATLVLIEWPERAPSALPEDRIDIALTHRPALGSNARAADITGYGKSAAQVARLKALREFLDASGYLDAMRRRMAGDASTRSYARLLRDDEIVILMNFPQRPDGAALYNGKSYSAAVHLAENVKPFVAIDEGLRAQGISAPAIHHADLDHGFLISEDFGSEGVIEGNPPRPIPERYEAATDVLAVLHGKTLPETLPLDGQSYAIPVFDTEAMLIEIGLMPEWYLPDRNAPLSEPKRAEFFAMWRELLKKPLAAPRTWIIRDYHSPNLIWLGMRTGIERVGVIDFQDTVLGPQSYDVVSLLQDARIDVPENLELTLLSRYIKARRAGDASFDPAGFAELYAIMSAQRNTRLLGTFARLNRRDGKPHYLRHQPRIWTYLQRSLAHPALSHLRDWYLANVPPPQRPSQEPAPEPPQGLEHHHHHH”: “not failed”; for “MSSSLLSVLKEKSRSLKIRNKPVKMTSQERMIVHRCRFVDFTPATITSLAFSHKSNINKLTPSDLRLAIGRSNGNIEIWNPRNNWFQEMVIEGGKDRSIEGLCWSNVNGESLRLFSIGGSTVVTEWDLATGLPLRNYDCNSGVIWSISINDSQDKLSVGCDNGTVVLIDISGGPGVLEHDTILMRQEARVLTLAWKKDDFVIGGCSDGRIRIWSAQKNDENMGRLLHTMKVDKAKKESTLVWSVIYLPRTDQIASGDSTGSIKFWDFQFATLNQSFKAHDADVLCLTTDTDNNYVFSAGVDRKIFQFSQNTNKSQKNNRWVNSSNRLLHGNDIRAICAYQSKGADFLVSGGVEKTLVINSLTSFSNGNYRKMPTVEPYSKNVLVNKEQRLVVSWSESTVKIWTMGTDSSTEQNYKLVCKLTLKDDQNISTCSLSPDGQVLVVGRPSTTKVFHLQPVGNKLKVTKLDNDLLLRTSTKLVKFIDNSKIVICSCEDDVFIVDLESEEDEKPQEVELLEVTSTKSSIKVPYINRINHLEVDQNIAVISRGCGVVDILDLKARISKPLARLNNFITAVHINTSRKSVVVITADNKIYEFNMNLNSEAENEDSESVLTQWSKNNTDNLPKEWKTLKENCVGIFSDIENSSRLWFWGATWISRIDFDVDFPINKRRKQKKRTHEGLTITDESNFMNDEEDDEDDDIDMEISENLNVLLNQGNKIKSTDVQRNEESSGHFFFTDKYKPLLFVDLISSNELAIIERNPLTFHSKQKAFIQPKLVF”: “failed”.
On to “MNFVTLTSDEFNAFTTKHFSHYTQSAIHYNHRVDLKGDVHLVGVKDDNGQVIAGCLLTEARTLKFFKYFYTHRGPVMDYTNQSLVAFFFKALTSYLKKHNCLYVLVDPYLIENLRNADGEIVKSYDNRAFVRTMDKLGYKHQGFPVGYDSMSQIRWLSVLDLKDKTEDQLLKEMDYQTRRNIKKTYDIGVKTKTLTIDETQTFFDLFHMAEEKHGFKFRELPYFEEMQKLYDDHAMLKLAYIDLNEYLKTLQLKQQQLTAELSGVEEALEESPNSKKNKTKRTQLEQQLNSNKRKIDNTIEQIEQDGAVLNLASALFIYNEHEVYYLSSGSNPKYNAYMGAYHLQWEMIKFAKAHHIDRYNFYGITGDFSESSEDYGVQQFKKGFNAHVEEYIGDFIKPIKPLLYKVQTYLNHKRR”, for which the protein production result is “failed”.
Take “MAICESGALPSHVGALSYSGGAASSFFGRRNADGLNDKWLALRDAFRAAGGDLLAIEDARSAALDFVIHVNAHRLRHDVPAFVILAESEFIHPPNVDWRMLQQYKGIFTWMPDLVRRGIGTEICLAHPLGAGVVDGYQERPQLLVMIASNKALPVWRPAVDLYRERVRAIRWFEKHAPQAFALYGHDWDKSPRLPTPLGGIVHGVEFVLPWRLQWFPSWKGVIPSKREVLRHARFSLCYENVRGLRGYITEKIFDAFCAGNVPVYWGAEDITDYIPADCFIDRRAFGDYADLYRYLTSMPETRYIQYQQAICDFLVSPAAKRFSSEIFATTIVGKVLDTLGRRDELEHHHHHH”: the protein production entry is given as “failed”.
